The results in this text go back to the nanobody polyreactivity screen of Harvey et al. (2022).

The nature of this data set: yeast display, Sf9 membrane polyspecificity reagent, FACS + sequencing; frameworks hold sequencing errors. Summed up:
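Nanobodies came from a synthetic yeast display library in Saccharomyces cerevisiae BJ5465, induced with galactose for 36–48 hours and stained for 1 hour at 4 °C with 10% biotinylated, detergent-solubilized Sf9 membrane reagent. Cells were enriched on streptavidin microbeads and then FACS-sorted, with low and high (top ~1%) gates set on anti-HA fluorescence for expression and streptavidin fluorescence for reagent binding. Each polyreactivity label reflects the gate a clone came from. Genes were amplified by colony PCR, sequenced by MiSeq 2 × 250 and filtered by CDR length.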
Take “QAELVESGGGLVQAGGSLRLSCAASGFTFTAYPMGWYRQAPGKERELVAAISYRGGRTNYAYSVKGRFTISRDNAKNTVYLQMNRLKPEDTAVYYCAARPRISTREMDYWGQGTQVTVSS”: the “polyreactivity (PSR sort gate)” value is recorded as “high polyreactivity”.
In the case of “QAQLQESGGSLVKAGGGLRLSCAASGYISVGSVMGRYRQAPSKERELVASIDQGANTNYADSVKGRFTISRDNGKNNVYLQMNSLKPEDTAVYYCATETTYILNYWGQGTEVTVSS”, the “polyreactivity (PSR sort gate)” value is “low polyreactivity”.
For “QAQLVESGGGLVQAGGSLRLSCAASGFTFSFNAMGWYRQAPGKERELVAAISSTGSSTYYADSVKGRFTISRDNAKNTVYLQMNSLKPEDTAVYYCAASRRGYRPRRYDYWGQGTQVTVSS”, the “polyreactivity (PSR sort gate)” value is “high polyreactivity”.
Consider “QDHLVDSGGGLVQAGGSLRLSCAAYGFTFYYNTMGWYRQAPGKERQLVAAISYSAGSTFYADSVKGRFTISRDNAKNTVYLQMNSLKPEDTAVYYCAAGRPRLHKGYHFGYWGQGTQVTVSS”, for which the “polyreactivity (PSR sort gate)” value is “low polyreactivity”.
In the case of “QDHLVESGGGLVPAGGSLRLSCAASGRIVYYVMGRYRQAPGKERELVAAISTRGGSTYYADSVKGRFTISRDNPKNTVYLQMNSLKAEDTAVYYCADSSLLTRYNSWGQGTQVTVSS”, the “polyreactivity (PSR sort gate)” value was “high polyreactivity”.
Regarding “QDHLVESGGGLVQAGGSLRLICAASGSTFTQYTMGWYRQAPGKERELVAAISSGGGRTYYADSVKGRFTISRDNAKNTVYLQMYSLKPEDTAFYYCAADYQNSRRGRGNSQYYYWGQGTQVTVSS”, the “polyreactivity (PSR sort gate)” value is “low polyreactivity”.
In the case of “QDHLVESGGGVVQAGGSLRLSCAATGSTIYRYPMGSYRQAPGNERELVAAISTRGGSTYYADSVKGRFTISRDNRKNTVYLQMNSLKPVDTAVYYCAAKCGSPDDYDYWGQGTQVTVSS”, the “polyreactivity (PSR sort gate)” value is recorded as “high polyreactivity”.
Consider “QDKLVESGGGLVQAGGSLRLSCAASGSTSRDNAMVWYRQAPGKERELVAAITVIDGTTYYADSVKGRFTISRDNAKNTLYLQMNSLKPEDTAVYYCAADTIWFEYYYWGQGTQVTVSS”, for which the “polyreactivity (PSR sort gate)” value is given as “low polyreactivity”.
Consider “QDQHVESGGGLVQAGGSLRLICDASGTFKFSAMGWYRQAPGKERELVARISRGGTTNYADSVKGRFTISRDNAKNTVYLQMNSLKPAETAVYYCAAPLRYVYSNSYWAYRYDYSGQGTQVTVSS”, for which the “polyreactivity (PSR sort gate)” value is recorded as “high polyreactivity”.
On to “QDQHVESGGGLVQAGGSLRLSCAASGLTFDQYAMGWYRQAPGKERELVAAISGSDSTYYADSVKGRFTISRDNAKNTVYLQMNSLKPEDTAVYYCAASGDYVNIITGERFDARLYDYWGQGTQVTVSS”, for which the “polyreactivity (PSR sort gate)” value is “low polyreactivity”.
Consider “QDQHVESGGGLVQAGGSLRLSCAASGNTFIRNVMGWYRLAPGKERELVAGIRTGGSTFYADSVKGRFTISRDNAKNTVYLQMNSLKPEDTAVYYCKAEVGDEGNLPYVIRPMDYWGQGTQVTVSS”, for which the “polyreactivity (PSR sort gate)” value is listed as “low polyreactivity”.
With “QDQHVESGGGLVQAGGSLRLSCAASGRIYDPYAMGWYRPAPGKERELVATISYSDGSTYYADSVKGRFTISRDNAKNTVYLQMNSLKPEDTAVYYGNAEFVGWWGYPTVLRLEYWGQGTQVTVSS”, the “polyreactivity (PSR sort gate)” value is “low polyreactivity”.
As for “QDQHVESGGGLVQAGGSLRLSCAASGSNFDVYAMGWYRQAPGKERELVATISYGDSSTYYADSVKGRFTISRDNAKNTVYLQMNSLKPEDTAVYYCAADYLTAPRWRQWGVMDYWGQGTLVTVSS”, the “polyreactivity (PSR sort gate)” value is “low polyreactivity”.
“QDQHVESGGGLVQAGGSLRLSCAASGSTFAWYSMGWYRQAPGKERELVASITSTGSTNYADSVKGRYTISRDNAKNTVYLQMNSLKPVDTAVYYCAAAVRAWYLRLYDYWGQGTQVTVSS”: the “polyreactivity (PSR sort gate)” value is given as “high polyreactivity”.
Regarding “QDQHVESGGGLVQAGGSLRLSGAASGRTVGWYAMGWYRQAHGKVRELVAAITSSVDSTYYADSVKGRFTISRDNAKNTVYLLMNRLKPEDTAVYYCAADYDDGFYLYDYWGQGTQVTVSS”, the “polyreactivity (PSR sort gate)” value is recorded as “low polyreactivity”.
For the sequence “QDQHVESGGGLVQAGGSQRLSCAAYGFIFWIYAMGWYRQAPGKEREFVAVITYRGDTTYYADSVKGRFTISRDNAKNTVFLQMNSMKPEDTAVYYCAAYTVQKYGYWGQGTQVTVSS”, the “polyreactivity (PSR sort gate)” value is reported as “low polyreactivity”.
For “QDQHVESGVGLVQAGGSLRLSCAASGSIFGNYAMGWYRQAPGKERELVAAIRVSDGRTYDADSVKGRFTISRDNAKNTVYLQMNSLKPEDTAVYYCAAESESSYGPYDYWGQGTQVTVSS” the value was “low polyreactivity”; for “QDQHVESGVGLVQEGGSLRLSCAASGIIIDEYAMGLYRQAPGKERELVAAISSRGTNTYYADSVKGRFTISRDNAKNTVYLQMNSLKPEDTAVYYCAARRPPVTRHFGYWGQGTQVTVSS”, “high polyreactivity”; for “QDQHVETGGGLVQAGGSLRLSCAASGRTFKFYAMGWYRQAHGKERELVAAITSGGKTNYADSVKGRFTISRDNAKNTVYLQLNSLKPEDTAVYYCKADAGRLSNRYRLWTYGYWGQGTQVTVSS”, “low polyreactivity”.
Consider “QDQIVESGGGLVQAGGSLRLIFAASGLTIARNAMGWYRQAPGKERELVAAISFSGGSTYYADSVKGRFTISRDNAKNTVYLLMNSLKPEDTAVYYCNTLLRRDFNYWGQGTQVTVSS”, for which the “polyreactivity (PSR sort gate)” value was “high polyreactivity”.
As for “QDQIVESRGRLVQAGGSLRLSCAASGRTFKPYAMGWYRQAPGKERELVARISGSGGSTYYADSVKGRFTISRDNAKNTVYLQMNSLKPEDTAVYDCATTPYYWFYYWGQGTQVTVSS”, the “polyreactivity (PSR sort gate)” value is recorded as “low polyreactivity”.
As to “QDQIVESWGGLVQSGGSLRLTCAASGRTFSTYAMGWYRQAPGKERELVAAISWRGARTYYADSVKGRFTISRDNAKNTVYLQMNSLKPEDTAVYYCAAAPYRYRRYEYWGQGTQVTVSS”, the “polyreactivity (PSR sort gate)” value is recorded as “high polyreactivity”.
As for “QDQLEESGGGLLQARGSLRLSCAASGSIFTCNGRGWYRQAPGKERELVAAISNGASTNYADSVKGRFTISRDNAKNSVYLQMNSLKPEDTAVYYCAAKSTGRYDYWGQGTQGTVSS”, the “polyreactivity (PSR sort gate)” value is “low polyreactivity”.
Regarding “QDQLEESGGGLVHAGGSLRLSCAASGRIFLTNAMGWYRQAPGKERELVAAITSGGSTYYADSVKGRFTISRDNEMNTVYLQMNSLNPEDTAVYYCNAYVTSGYANEYYWGQGSQVTVSS”, the “polyreactivity (PSR sort gate)” value is recorded as “low polyreactivity”.
As to “QDQLEESGGGLVQAGGSLRLSCAASGFIFNHYAMGWYRQAPGKEREFVAAISWSGGSTYYADSVKGRFTISRDYAKNTVYLQMNSLKPEDTAVYYCAASYNGLWHGDYDYWGQGTQVTVSS”, the “polyreactivity (PSR sort gate)” value is “low polyreactivity”.
In the case of “QDQLEESGGGLVQAGGSLRLSCAASGRIFFRNLMGAYRQPTGKERELVATITSGGRTYYADSVKGRFTISRDNAKNTVYLQMNSLKPVDTAVYYCATVYRPGGVYGYEYWGQGTQVTVSS” it was “high polyreactivity”; in that of “QDQLEESGGGLVQAGGSLRLSCAASGRTFIYYAMGWYRQAPGKERELVAAITRSGGITNYADSVKGRFTISRDNSKNTVYLQMNSLKTEDTEVYYCAARFYGRRCIYGYWGQGTQVTVSS”, “high polyreactivity”; in that of “QDQLGESGGGLVQAGGSLRLSCAASGFTFWWYAMGWYRQAPGKERELVAGITSGASTYYADSVKGRYTISRDNAKNTVYIQMNSLKPEDTAVYYCAADWLGWYQPYDYWGQGTQVTVSS”, “low polyreactivity”.
In the case of “QDQLGESGGGLVQAGGSLRLSCAASGSTFTWYAMGWYRQAPGKERELVAAISRGGSTNYADSVKGRFTISRDNAKNTVYLQMNSLKPEDTAVYYFAAESYWRDDYWGQGTQVTLSS” it was “low polyreactivity”.
In the case of “QDQLVDSGGGLDQAGGSLRLSCAASGIIFPRYALGWYRQAPGKERELVAAITRRGGRTYYADSVKGRFTISRDNAKNTVYLQMNSLKPEDTAVYYCNADFISTLPPKATEEDYWGQGTQVTVSS” it was “high polyreactivity”; in that of “QDQLVDSGGGLLQAGGSLSLSCAASGHIIQVKTMGWYRQAPGKERELVASISASVGSTYYADSVKGRFTISRDNAKNTVYLQMNSLKPEDTAVYYCAKSLGYSVVRTLSPTGFYYWGQGTQVTVSS”, “low polyreactivity”; in that of “QDQLVDSGGGLVQAGGSLRLICAASGYIIHDNAMGWYRQAPGKERELVAAINRGGSTHYADSVKGRFTISRDNAKNTVYLQMNSLKPEDTAVYYCAAKDGRSYYDRTPMDYWGQGTQVTVSS”, “low polyreactivity”.
Regarding “QDQLVDSGGGLVQAGGSLRLRCGASGRILAWYAMGWYRQAPGKEREFVAGNTGSVGSTYYADSVKGRFTNSRDNEKNTVDLQMNSLKPEDTAVYYCYNEWDSTSGQKHYYWGQGTQVTVSS”, the “polyreactivity (PSR sort gate)” value is “low polyreactivity”.
On to “QDQLVDSGGGLVQAGGSLRLSCAASGRIFTINAMGWYRQAPGKERELVAAITYSGGSTYADSVKGRFTISRDNAKNTVYLQMNSLKPEDTAVYYCNAKLTWSRRYVRYNYWGQGTQVTVSS”, for which the “polyreactivity (PSR sort gate)” value is “high polyreactivity”.
On to “QDQLVDSGGGLVQAGGSLRLSCAASGSTFGYYVMGWYRQAPGKERELVAAISDSDGSTYYADSVKGRFTISRDNAKNTVYLQMYSLKPEDTAVYYCATGPHQPPYSYLDYDYWGQGTQVTVSS”, for which the “polyreactivity (PSR sort gate)” value is “low polyreactivity”.
As for “QDQLVDSGGGLVQAGGSLRLSCAASGSTFYYYTMGWYRQAPGKEGELVAAITSGGSTYYADSVKGRFTISRDNAKNTVYLQLNSLKPEDTAVYYCAADLRRNGWGFDYWGQGTQVTVSS”, the “polyreactivity (PSR sort gate)” value was “high polyreactivity”.
Consider “QDQLVDSGGGLVQAGGSLSLICAATGLIFNRNAMGWYRQAPGKERELVASISSGGRTNYADSVKGRFTISRDNAKNTVYLQMNSLKPEDTAVYYCAAKSPRILLDYWGQGTQVTVSS”, for which the “polyreactivity (PSR sort gate)” value is reported as “low polyreactivity”.
For “QDQLVDSGGGLVQAGGSLSLSCAASGYILDYYAMGWSRQAPGKERELVAAISYRGDSTYYADSVKGRFTISRDNEKNTVYLQMNSLKPEDTAVYYCNAGYFTRAQYEYDYWGQGSQVTVSS” the value was “high polyreactivity”; for “QDQLVESAGGLVQAGGSLRLSCAASGLTFWDYAMGWSRQAPGKERELVAGINTRGTSTYYADSVKGRFTISRDNAKNNVYLQMNSLKPEDTAVYYCAARVRSELIKRYYWGQGSQVTVSS”, “high polyreactivity”.
In the case of “QDQLVESAGGLVQAGGSLRLSCAASGRIYVSNVMRWSRQAPGKERELVAAIDKSGGSTYYADSVKGRFTISRDNAKNTVYLQMNSLKPEDTAVYYCAATSYRQPYRYYYWGQGTQVTVSS” it was “high polyreactivity”.
In the case of “QDQLVESAGGLVQAGGSLSLSCAATGFTFYYNAMGWYRPAAGKERELVASITRSGGRTYYADSVKGRFTISRDNAKNTVYLQMNSLKPEDTAVFYCARRYPGGYYWGQGTQVTVSS” it was “high polyreactivity”.
